{
  "source": "patent US20200262895A1",
  "about": "(Biogen, published 2020)",
  "binders": {"B1": {"name": "recombinant human antibody NI-105.40E8 (NI-105.40E8-hIgG1, germlined) (antibody, V domains shown)", "VH": "EVQLVESGGGLVQPGGSLRLSCAASGFTFPNYVMTWVRQAPGKGLEWVSGISGSGGSTDYADSVKGRFTISRDNSKNTLYLQMNSLRVEDTALYYCAKGSGGIRGQGTMVTVSS", "VL": "QSALTQPRSVSGSPGQSVTISCTGTSSDVGGYNYVSWHQQHPGKAPKLLIYDVTKRPSGVPDRFSGSKSGNTAALTISGLQAEDEADYYCHSYVGSYTLVFGGGTKLTVLG", "notes": "Heavy chain is human IgG1"}, "B2": {"name": "recombinant human antibody NI-105.29G10 (germlined) (antibody, human IgG1, V domains shown)", "VH": "EVQLVESGGDLVQPGGSLRLSCAASGFDFSGYSMAWVRQAPGKGLEWVSYISGTYVSGGTGTMYYLDSVKGRFFISRDDATSSLYLQMDSLRDEDTAVYYCARVYDYGEDWGQGTLVTVSS", "VL": "not shown", "notes": "Complete recombinant human IgG1 by the methods"}, "B3": {"name": "recombinant human antibody NI-105.48E5 (germlined) (antibody, V domains shown)", "VH": "EVQLVESGGGLVQPGGSLKLSCAASGFTFSGSAMHWVRQASGKGLEWVGRIRSKANSYATAYAASVKGRFTISRDDSKNTAYLQMNSLKTEDTAVYYCTSPTVTTEVWGQGTLVTVSS", "VL": "not shown", "notes": "as for B2"}, "B4": {"name": "recombinant human antibody NI-105.4A3 (antibody, V domains shown)", "VH": "EVQLVETGGGAVQPGGSLRLSCAASGFTFSDYAMHWVRQAPGKGLQWVAVISYEGTYKYYADSVKGRFTISRDNSKNTLNLQMSSLRVEDTAVYFCVKARAFASGQRSTSTVPDYWGQGTLVTVSS", "VL": "SYELTQPPSVSVSPGQTARITCSGDALPKKYAYWYQQKSGQAPVLVIYEDNKRPSGIPERFSGSSSGTVATLTISGAQVDDEADYYCYSTDISGDLRVFGGGTKLTVL", "notes": "Human antibody described in US 2012/0087861; used as cloned"}, "B5": {"name": "recombinant human antibody NI-105.4E4 (antibody, V domains shown)", "VH": "EVQLVESGGGLVQPGGSLKLSCAASGFNFNISAIHWVRQASGKGLEWVGRIRSKSHNYATLYAASLKGRFTLSRDDSRNTAYLQMSSLQTEDMAVYYCTVLSANYDTFDYWGQGTLVTVSS", "VL": "LPVLTQPPSVSVSPGQTARISCFGDTLPKQYTYWYQQKPGQAPVLVIYKDTERPSGIPERFSGSSSGTTVTLTISGVQAEDEADYYCLSADNSATWVFGGGTKVTVL", "modifications": "Asn-30 of the VH carried an N-glycan when the chimeric ch4E4 was expressed in CHO cells; the letter is unchanged.", "notes": "Human antibody described in US 2012/0087861"}, "B6": {"name": "chimeric NI-105.4E4(N30Q) (ch4E4(N30Q)), mouse IgG2a/lambda (antibody, V domains shown)", "VH": "B5 VH with N30Q", "VL": "SYELTQPPSVSVSPGQTARISCFGDTLPKQYTYWYQQKPGQAPVLVIYKDTERPSGIPERFSGSSSGTTVTLTISGVQAEDEADYYCLSADNSATWVFGGGTKVTVLG", "notes": "Only the heavy chain of ch4E4 was changed (Asn-30 to Gln)"}, "B7": {"name": "ch17C1(N31Q) mIgG2a (antibody)", "heavy": "EVQLVQSGAEVKKPGESLKISCKAFGYSFTNFWIGWVRQVPGKGLEWVGIIYPGDSDTRYSPSFQGQVTISADKSIDTAYLQWGHLKASDSAMYFCARRGFWTGSQIEYWGQGTQVTVSSAKTTAPSVYPLAPVCGDTTGSSVTLGCLVKGYFPEPVTLTWNSGSLSSGVHTFPAVLQSDLYTLSSSVTVTSSTWPSQSITCNVAHPASSTKVDKKIEPRGPTIKPCPPCKCPAPNLLGGPSVFIFPPKIKDVLMISLSPIVTCVVVDVSEDDPDVQISWFVNNVEVHTAQTQTHREDYNSTLRVVSALPIQHQDWMSGKEFKCKVNNKDLPAPIERTISKPKGSVRAPQVYVLPPPEEEMTKKQVTLTCMVTDFMPEDIYVEWTNNGKTELNYKNTEPVLDSDGSYFMYSKLRVEKKNWVERNSYSCSVVHEGLHNHHTTKSFSRTPGK", "light": "QSALTQPPSASGSPGHSVTISCTGTSSDVGQYSFVSWYQQYPGKAPKIIIYDVSKRSSGVPDRFFGSKSANTASLTVSGVQEEDEADYFCSSYGGSKYPWVFGGGTKLTVLGQPKSSPSVTLFPPSSEELETNKATLVCTITDFYPGVVTVDWKVDGTPVTQGMETTQPSKQSNNKYMASSYLTLTARAWERHSSYSCQVTHEGHTVEKSLSRADCS"}, "B8": {"name": "ch17C1(N31Q) mIgG1 Agly (antibody)", "heavy": "EVQLVQSGAEVKKPGESLKISCKAFGYSFTNFWIGWVRQVPGKGLEWVGIIYPGDSDTRYSPSFQGQVTISADKSIDTAYLQWGHLKASDSAMYFCARRGFWTGSQIEYWGQGTQVTVSSAKTTPPSVYPLAPGSAAQTNSMVTLGCLVKGYFPEPVTVTWNSGSLSSGVHTFPAVLQSDLYTLSSSVTVPSSTWPSETVTCNVAHPASSTKVDKKIVPRDCGCKPCICTVPEVSSVFIFPPKPKDVLTITLTPKVTCVVVDISKDDPEVQFSWFVDDVEVHTAQTQPREEQFQSTFRSVSELPIMHQDWLNGKEFKCRVNSAAFPAPIEKTISKTKGRPKAPQVYTIPPPKEQMAKDKVSLTCMITDFFPEDITVEWQWNGQPAENYKNTQPIMDTDGSYFVYSKLNVQKSNWEAGNTFTCSVLHEGLHNHHTEKSLSHSPGK", "light": "B7 light", "notes": "Aglycosylated Fc; also called ch17C1-mIgG1-Agly; ch17C1 Agly"}, "B9": {"name": "ch17C1(N31Q, I48V) mIgG2a (antibody, V domains shown)", "VH": "EVQLVQSGAEVKKPGESLKISCKAFGYSFTNFWIGWVRQVPGKGLEWVGIIYPGDSDTRYSPSFQGQVTISADKSIDTAYLQWGHLKASDSAMYFCARRGFWTGSQIEYWGQGTQVTVSS", "VL": "QSALTQPPSASGSPGHSVTISCTGTSSDVGQYSFVSWYQQYPGKAPKVIIYDVSKRSSGVPDRFFGSKSANTASLTVSGVQEEDEADYFCSSYGGSKYPWVFGGGTKLTVLG", "notes": "The sentence giving the chains names the antibody 'ch17C1(N31Q) mIgG2a' but lists the (N31Q, I48V) light chain"}, "B10": {"name": "recombinant human antibody NI-105.6C5 (germlined) (antibody, human IgG1, V domains shown)", "VH": "QVQLVESGGGVVQPGRSLRVSCAASGFTFSSYDMHWVRQAPGKGLEWVAVIWFDGSNEFYADSVKGRFTISRDNSKNTLFLQMNSLRAEDTAVYYCARDLGASVTTSNAENFHHWGQGTLVTVSS", "VL": "SYELTQPPSVSVSPGQTARITCSGDALPKRYVYWYQQKSGQAPVLVIYEDSKRPSGIPETFSGSSSGTMATLTISGAQVEDEADYYCYSTDSNGHHWVFGGGTKLTVL"}, "B11": {"name": "recombinant human antibody NI-105.17C1 (not germlined, as used in Table 7) (antibody, human IgG1, V domains shown)", "VH": "B9 VH with Q115L", "VL": "QSALTQPPSASGSPGHSVTISCTGTSSDVGNYSFVSWYQQYPGKAPKVIIYDVSKRSSGVPDRFFGSKSANTASLTVSGVQEEDEADYFCSSYGGSKYPWVFGGGTKLTVL", "notes": "Complete human IgG1 by the methods"}, "B12": {"name": "recombinant human antibody NI-105.24B2 (antibody, V domains shown)", "VH": "EVQLVQSGAEVKKPGASVKVSCKASGYTFVNYIIHWVRQAPGQGLEWMGIINPNGGNTSYAEKFQARVTLTSDTSTSTVYMDLSSLTSEDTAVYYCAVLSPSNPWGQGTTVTVSS", "VL": "SYVLTQPPSVSVSPGQTAGITCSGDALPKQFVYWYQKKPGQAPVLLIYKDTERPSRIPERFSGSTSGTTVALTINGVQAEDEADYYCQSADRSGALWVFGGGTKLTVL", "notes": "as for B4"}},
  "key": {"[1]": {"biological_target": "T1, normal tau in wild type mouse brain (Wt) (mouse, UniProt P10637-2 1-430, limits assumed)", "T1 construct": "Control tissue in immunohistochemistry", "T1 sequence (P10637 other isoform, or with tags, fused parts or gaps limits assumed)": "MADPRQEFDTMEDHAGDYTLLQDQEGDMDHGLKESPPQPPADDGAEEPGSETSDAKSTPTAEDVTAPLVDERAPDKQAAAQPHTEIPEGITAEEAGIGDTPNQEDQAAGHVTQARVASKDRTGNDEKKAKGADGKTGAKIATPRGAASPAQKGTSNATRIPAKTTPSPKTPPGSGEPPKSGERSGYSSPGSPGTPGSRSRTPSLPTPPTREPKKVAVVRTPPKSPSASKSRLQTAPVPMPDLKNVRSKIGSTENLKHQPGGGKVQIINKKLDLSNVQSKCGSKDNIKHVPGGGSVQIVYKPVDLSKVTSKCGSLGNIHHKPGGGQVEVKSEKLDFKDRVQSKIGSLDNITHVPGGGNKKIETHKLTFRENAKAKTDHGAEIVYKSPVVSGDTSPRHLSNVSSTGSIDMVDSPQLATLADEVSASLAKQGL", "experiment": "immunohistochemistry on brain tissue sections"}, "[2]": {"biological_target": "T2, PHFTau (paired helical filaments containing pathologically phosphorylated tau filaments, extracted from AD … (human, UniProt P10636-8 1-441, limits assumed, pathologically phosphorylated (sites of the preparation not listed), aggregated filaments))", "T2 construct": "Brain extract, not a single defined isoform; also called human PHF tau; pathologically modified PHFTau", "T2 sequence (P10636 other isoform, or with tags, fused parts or gaps limits assumed)": "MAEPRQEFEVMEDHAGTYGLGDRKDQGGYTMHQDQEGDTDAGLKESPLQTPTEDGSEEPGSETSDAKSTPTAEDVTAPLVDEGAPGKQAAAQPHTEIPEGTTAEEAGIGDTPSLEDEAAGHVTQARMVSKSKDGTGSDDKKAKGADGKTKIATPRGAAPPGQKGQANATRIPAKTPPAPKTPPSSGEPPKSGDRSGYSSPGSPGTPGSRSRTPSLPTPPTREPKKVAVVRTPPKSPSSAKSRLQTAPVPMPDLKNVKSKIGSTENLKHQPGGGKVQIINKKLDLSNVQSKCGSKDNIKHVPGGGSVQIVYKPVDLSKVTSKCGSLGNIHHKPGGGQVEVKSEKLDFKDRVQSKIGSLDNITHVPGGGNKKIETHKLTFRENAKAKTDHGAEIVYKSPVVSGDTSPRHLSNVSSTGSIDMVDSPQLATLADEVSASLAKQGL", "experiment": "direct ELISA on coated PHFTau"}, "[3]": {"biological_target": "T3, recombinant human tau, isoform Tau-F of 441 aa (hTau40) (human, UniProt P10636 1-758)", "T3 construct": "Bought from rPeptide (Bogart, GA, USA); coated on ELISA plates, blotted, or spotted as overlapping peptides; also called full-length tau; rTau", "T3 sequence (P10636 other isoform, or with tags, fused parts or gaps limits assumed)": "as above", "experiment": "direct ELISA on coated recombinant tau (rTau)"}, "[4]": {"biological_target": "T3, recombinant human tau, isoform Tau-F of …", "experiment": "direct ELISA, hTau40 coated at 1 ug/ml", "description": "(§1) The EC₅₀ values were estimated by a non-linear regression using GraphPad Prism software.\nELISA plates were coated with recombinant human tau (hTau40, 1 ug/ml), PHFTau (1:100) and control preparation (1:100), and incubated with varying antibody concentrations."}, "[5]": {"biological_target": "T3, recombinant human tau, isoform Tau-F of …", "experiment": "binding of CHO-produced antibody to recombinant tau; format not stated"}, "[6]": {"biological_target": "T3, recombinant human tau, isoform Tau-F of …", "experiment": "ELISA on recombinant Tau, absorbance at 450 nm"}, "[7]": {"biological_target": "T3, recombinant human tau, isoform Tau-F of …", "experiment": "ELISA on recombinant Tau, absorbance at 450 nm", "remark": "listed apart in the source"}, "[8]": {"biological_target": "T1, normal tau in wild type mouse brain (Wt)", "experiment": "immunohistochemistry on brain tissue"}, "[9]": {"biological_target": "T3, recombinant human tau, isoform Tau-F of …", "experiment": "direct ELISA, hTau40 coated at 3 ug/ml", "excerpt": "as §1"}},
  "note": "Numbering of substitutions follows the chain as printed. Names and notes keep the numbering of the source. Where two headings read alike, the source gives them in different places.",
  "data": [
    {"binder": "B1", "values": [
      {"measurement": "binding result", "setting": "[1]", "result": "no binding"}
    ]},
    {"binder": "B2", "values": [
      {"measurement": "EC50", "setting": "[2]", "result": 5.3, "unit": "nM"},
      {"measurement": "EC50", "setting": "[3]", "result": 3.8, "unit": "nM"}
    ]},
    {"binder": "B3", "values": [
      {"measurement": "binding result", "setting": "[1]", "result": "no binding"}
    ]},
    {"binder": "B4", "values": [
      {"measurement": "EC50", "setting": "[4]", "result": 1.4, "unit": "nM"}
    ]},
    {"binder": "B5", "values": [
      {"measurement": "EC50", "setting": "[4]", "result": 2.4, "unit": "nM"}
    ]},
    {"binder": "B6", "values": [
      {"measurement": "fold higher apparent binding affinity relative to the original, glycosylated antibody (ch4E4)", "setting": "[5]", "result": "~4", "unit": "fold"}
    ]},
    {"binder": "B7", "values": [
      {"measurement": "EC50 (read off the curve)", "setting": "[6]", "result": "~0.8", "unit": "µg/mL"},
      {"measurement": "EC50 (read off the curve)", "setting": "[7]", "result": "~0.3", "unit": "µg/mL"}
    ]},
    {"binder": "B8", "values": [
      {"measurement": "EC50 (read off the curve)", "setting": "[6]", "result": "~0.9", "unit": "µg/mL"}
    ]},
    {"binder": "B9", "values": [
      {"measurement": "EC50 (read off the curve)", "setting": "[7]", "result": "~0.3", "unit": "µg/mL"}
    ]},
    {"binder": "B10", "values": [
      {"measurement": "EC50", "setting": "[2]", "result": 0.04, "unit": "nM"},
      {"measurement": "binding result", "setting": "[8]", "result": "no binding"},
      {"measurement": "EC50", "setting": "[3]", "result": 0.033, "unit": "nM"}
    ]},
    {"binder": "B11", "values": [
      {"measurement": "EC50", "setting": "[2]", "result": 4.7, "unit": "nM"},
      {"measurement": "EC50", "setting": "[3]", "result": 3.3, "unit": "nM"}
    ]},
    {"binder": "B12", "values": [
      {"measurement": "EC50", "setting": "[9]", "result": 6.6, "unit": "nM"}
    ]}
  ]
}
